{"source": "the DeepSol protein solubility set", "data": [{"assay": "soluble on expression in E. coli; label from the status in PepcDB or PDB records", "values": [{"sequence": "MSLSSEVVLMKPYEKLVERFNEMAAEFLSYFPTVKSVGNLESELDKRRFVILFRAMLRLRNEVKGYNEFDAEDLTIEEQRFADYQSKYLDMSNEFAITSEKEDAESILQDIDFELELVHRDIINVMYILALLQDLKPESSSYPKDRKAVLDTMDSNPELRSKIALIDNFIKLHIDGRQSNDLPADMESDLDKYIATQKAIAIEQVATEEGIDSTLLHEYISEYEYLGKPKNEIIKRAIDPLKLSFMDAQSKKKSLIDKMKDIIKLFSWNEGHHHHHH", "soluble on expression in E. coli": "soluble"}, {"sequence": "MLSNMLDVNLEKMERFAAKVWRKYGKEDPLAQLSFNEYDYLKVIQSAPQAIRLTDLALALEVSKPSASNMLKRLERRGLVKRVQCQSDARSQLFELTEQAELHLASEAKVYQILAEQVAQNLSSEEAMMLDLLLGKALR", "soluble on expression in E. coli": "not soluble"}, {"sequence": "MSLSYTTQQIIEKLRELKIVPVIALDNADDILPLADTLAKNGLSVAEITFRSEAAADAIRLLRANRPDFLIAAGTVLTAEQVVLAKSSGADFVVTPGLNPKIVKLCQDLNFPITPGVNNPMAIEIALEMGISAVKFFPAEASGGVKMIKALLGPYAQLQIMPTGGIGLHNIRDYLAIPNIVACGGSWFVEKKLIQSNNWDEIGRLVREVIDIIKEGGSHHHHHH", "soluble on expression in E. coli": "soluble"}, {"sequence": "MKQLKSLDSDLEKAIGRISGGLYIITAQKGEVKGAMLASWVSQASFNPPGFTVAVAKDRAIESLMQVGDRFVLNILEEGNYQILMKHFLKRFPPGADRFAGVKTQTASNGSPILTDALAYLECEVASRMECSDHWIVYSQVTNGRVAKAEGLTAVHHRKVGNYYLEHHHHHH", "soluble on expression in E. coli": "not soluble"}, {"sequence": "MGSSHHHHHHSSGLVPRGSHMKIAFVIRKDCSRCARIAESIIDLLPKDWEIIYDHEAAKFLNSKGLDISQISADVIITIGGDGTVLRTLQMAKGPVLGINMGGLGFLTELEVDEVGSAIFKLIKGQYRITESMKLKVEINGDRVEDCTNEAVVHTERIARIRQFKIYIDGHFLSTMKSDGIIVATPIGSSSYSSSAGGPLLLPTLKGMVISYLAPYSSRLKPVVVTSDSTVEIKIAGRDQECILILDGQREYTVRSGDTVRISRSENSARFLSFRESVYDRIRDKVIKHVVN", "soluble on expression in E. coli": "soluble"}, {"sequence": "MAAIINQRVEQGESSMGGAKPALLHRITGHVARINDVILLSKDEGVWTASDDRSVRLYLKRDNDQFWPSIHHFMPVAPTSLYYSEETYKLLVGLINGNVYEFSVADDFNSMTESRKWTCHAGPISGLGFALSSELIFSCSRDKSIVWHCSENSNKMGSYLLENSCTAMVIDLPFVFVGDHGGHVTVLRIVDNQPNLVSKLSAHTNAITSLTWDGNKKVLYSGSSDHLIIMWDIGGGRGEAYELNGHNGKVTTLCAAPAAKRLFSADEHGKLMCWDMNCKRVETPEWKTSDCCQKCNQPFFWNLQAMWQRKVVGLRQHHCRTCGSAVCGSCCDNWTTYPPMGYETKIRICNDCNARMKDNPQNFNLTPLAIPHEIHTGITAMHLQETLGLLVTSGQNRVIMIWDVRSVCSAPSGSQ", "soluble on expression in E. coli": "not soluble"}, {"sequence": "GPSRVVYLGSIPYDQTEEQILDLCSNVGPVINLKMMFDPQTGRSKGYAFIEFRDLESSASAVRNLNGYQLGSRFLKCGYSSNSDISGVSQQQQQQYN", "soluble on expression in E. coli": "soluble"}, {"sequence": "MGSDKIHHHHHHLPALPHIPIPVNFEEYCQQKAAPPGSSTYYALRQAPAASQPLLTALFALRREFEETVKETSDPTIGRTKLAWWQNEIAALASDSPSHPVSKALAAYLPDVKTEYPALQTLLAGFEMDLDQARYLDYPNLRRYVQGVGGTFASLVARATAKDAAQASNWSAPLGEALMLAQFVVETGHDARHGRIYIPIDEMQRFNVTAADLINRKYTEAFTELMRFETKRARDALQSALGAVPGSERRTQRTLVAQAALASALLDEIERDGYHVLHQRIALTPIRKLWIAWRAK", "soluble on expression in E. coli": "not soluble"}, {"sequence": "MAHHHHHHMNNLTLGDSNICGTFNKLPFIESYYNRKGILLKSYSWLVKNAIGIIVLVHGLSAHLRLQYLKLNVNVVNNDYATLIDADNYYIYEDSWIEEFNKNGYSVYGIDLQGHGESDGLDKLPLHINNFDDYVYDIIDYMRRINNSIVLEKSMQKSTSNKYTIENREELLPMYLVGLSMGGNIVLRTLEILGKSNEINSNLNIKGCISLAGMISVRMVGSIDSIKYKYFYLPVMKIFSRYFPTFRPGKKKFKFEKYPFVNDLLFYDKYRFKGRITNNLAREILVALDNLHNNIDDIPKNIPILFIHSINDCLCWYEGTVSFYNKLQIDNKELYTLEDMDHVISMEPGNENVLKKILEWISNLYVQ", "soluble on expression in E. coli": "not soluble"}, {"sequence": "MGSDKIHHHHHHSDIATSVTQGGEQRLADGGYFELGASVYGTNQLDIRQTEHESIQPSLLISGMYQYKGLFAEMVHQSQDGINFGINLWSSNNWSLDLLAVNYQGSAGRSENTELSQLDEDGRNAYLMETDSIFIGAGFRVTRYWDDHYVFQYRIVSDYFDDQGISTTARLGKSWQVRNWNFHALASIEYASTKLSRNLFGVESMEATELFPEYRPSSAVTYGMELGVAYPLSEKLVFRTVYRLNVLSKEITASPFNQADYGSFFNASFSYVF", "soluble on expression in E. coli": "not soluble"}, {"sequence": "MAHHHHHHMQKTLFDFVRKGTSSGPAAANAVAAAHRERQWPSASNGEDSTPRTDSPPKKHAKTRREGSRSRGNSRECEGTSLKGASRDDAIDLDASVSVALLESTFPPSEEGGAIDKSKHVSSGTAVPAGAAATAAASSGTARSDAPQLQPAATSSRWLAGLITNLEWRDFLAPITVDSWRSGAFARIEHFLDGEMAKGKVILPPATDIFNAFNSCPFRDLKVVLLGQDPYHDLHQAHGLCFSVLPEVPLPPSLRNIYKELTTDIPGFQAPRHGYLQSWSEQGMLMLNATLTVEAHKANSHSKASGWTAFTDAVIQHLSQHHPNRLVFLLWGGYAQQKKKLIDASRHIVLESVHPSPLSASRGWFGCHCFSACNEALQSMGHLPMHWQLPLNASLP", "soluble on expression in E. coli": "not soluble"}, {"sequence": "MAHHHHHHMAHVLQKCAHVLGISLSATGVYYAKGKMPYPATSSNEGTSSAESMGGSPGKAAKSNTVSAVKESQAATRKSKAQGNSVATAAVHTPSPPSSTEMNATNLDATSPCSSAAGPVGFFFDVGLHDLPNPPRDFDVTPSALAVDGTHSSANGAVIAVRDFVSHIPPFFVPVTEVVANMPGYTAEHLEVYLNVNSLELVTVAGERYVRLYGSFGDLSLSGSEVSEKRYAHYRPDVALVAAFEAAFEGIYDKWMPLPELLRRVGPDVTAQLPYQGPAAITYFAQMQHRFAFAVREVPTTGGGAAGALSSPQFTTEAAVLLRKPGYSGLEAHSTPTPKSFQALMSLVPGDTQVDIDVVRCQLTSEVRAELSRYYDGLEGFFAAHKPVFFVPPETPTVVMRMRYRLRTQRAKLPLEEQLRIATDARDKARIRSLRRKIAFRDDPSHPLHDPENLAKEVSKHLPRRGFVHLRIFLKRNVPEELLMYMPKRMRCFFNNYPQYFTQFEYQSAGTWCLCRPDQPLPRGVIRQNFSDGDLLRLIAEFLQQRGARAASMVHTNLPFGAQEVIRRRYGGVYFFVTRYPQYFNVVLKTDRQNVKSSAVVHLIQVPSQELSDATMAASAASLNNPNAPSHDDDDHESGDDDDDEDLDDGLD", "soluble on expression in E. coli": "not soluble"}, {"sequence": "MNHLPVVGEDYVEIPDGRPFAPLAGKIEVVEIFGYTCPHCAHFDSKLQAWGARQAKDVRFTLVPAVFGGVWDPFARAYLAADVLGVAKRSHTAMFEAIHEKGSVPIQNVGPDELAVFYAGYGVQPDRFVATFNGPEVEKRFQAARAYALKVRPVGTPTIVVNGRYMVTGHDFEDTLRITDYLVSRERAASHGR", "soluble on expression in E. coli": "soluble"}, {"sequence": "MLYDVVGVRFKKAGKVYYFDPNQFDISENEFVIVETVRGIEYGKVVITKKQVDENDVVLPLKKVIRIANENDRTIVEENKHAAKEAYQVCQQKVVEHNLDMKLVDVEYTFDRNKIIFYFTADGRIDFRELVKDLAAIFRTRIELRQIGVRDEAKMLGGIGPCGRMLCCSTFLGDFEPVSIKMAKDQNLSLNPAKISGLCGRLMCCLKYENDEYEAAKEQLPDLDQRIQTPHGTGRVIGLNILERLIQVELVDKERIVEYTLDELVNKGLEHHHHHH", "soluble on expression in E. coli": "soluble"}, {"sequence": "MGSDKIHHHHHHMASSENTKNGNGGTLGFEAELFKAADKLRGNMEPSDYKHVALGLIFLKYISDAFEARHKALLAEDVRAAEDKDEYLADNVFWVPKEARWSHLQANAKLPAIGTLIDDAMRAIEKDNESLKGVLPKDYARPALNKVMLGELIDLISGIALNEEGDRSKDILGRVYEYFLGQFAGAEGKRGGEFYTPRSVVRVLVEMLEPYSGRVYDPCCGSGGMFVQSEKFVHEHGGRIGDIAIYGQESNYTTWRLAKMNLAVRGIDSDIRWNNEGSFHKDELRDLKADYVLANPPFNISDWGGDRLREDVRWKFGAPPVGNANYAWLQHIFHHLAPNGTAGVVLANGSMSSNQSGEGEIRRAMIEADAVDCMVALPGQLFYSTQIPACLWFLARNKNPGGGLRDRRGQVLFIDARKLGVLIDRTRRELNDDDIKRIADSYHAWRGEKEAGEYADVLGFCKSASLDEIRKHGHVLTPGRYVGAEAQADDGEPFDEVMRRLSAQWRAQQLEGQRVDDAIERNLRELGYGQ", "soluble on expression in E. coli": "not soluble"}, {"sequence": "MGSDKIHHHHHHMIVKDYRREFEALAKAYEKAGGDVSKFLDRRIASIIISGDKVIGLNGVEGVELTPYRIENGVQVDMRIKEGVVVEYPVHVCTGYLEKKGLQRVVFNIRLEKNAKAIFVAHCVFPWTEDFTHDALMNVELEEGAWMEYHDEHTHSETGSINLITRSIARVGERAVYRNTFTLVKTRIGTLRVFMDASLEKDAVGELYTKVKAVEDDDVEVKEILRLNGMGARGLAKTNAVAIDRAKVSVVNEVYGNAPHTRGHVECLEIAKGDGVDVRALPVLVVKNDSSELTHEASIGRVNAKQLETLMAKGLTEEEATEMIIKGILT", "soluble on expression in E. coli": "not soluble"}, {"sequence": "RRAELNTNETDESEKVIEGYFAVFNSETELFPGAFEEILPGAFDNTLENDVRALINHDTALVLGRNVSKTLSLRVDDKGLWGQIKINPLDSDAINLYERVKRGDVSQCSFGFNIIKEQEEWRDDGSVKWSLEEVELHEVSVCTFPAY", "soluble on expression in E. coli": "not soluble"}, {"sequence": "MGGSHHHHHHGMASALSQATKRKHVVKEVLGEHIVPSNQQQIVRVLRTPGNNLHEVETAQGQRFLVSMPSKYRKNIWIKRGDFLIVDPIEEGEKVKAEISFVLCKDHVRSLQKEGFWPEAFSEVAEKHNNRNRQTQPELPAEPQLSGEESSSEDDSDLFVNTNRRQYHESEEESEEEEAA", "soluble on expression in E. coli": "not soluble"}, {"sequence": "MMEEQLIPIQWKDDALVLLDQTLLPNEIVYESFKTAESVWDAIQVMKVRGAPAIGVSAAYGVYLGIKEFAESTEEGFMDEVRKVCTYLATSRPTAVNLFWALERMESVATDNIHLSISQLKNRLLEEAKEIHREDEEINRQIGEHALTLFHDGMGVLTHCNAGALATTKYGTATAPMYLAKEKGWDLKIYSDETRPRLQGSTLTALELQRAGIDVTVITDNMAAMVMSQGKIDAVIVGCDRVAANGDVANKIGTLGVSILAKYYNIPFYVAAPTPTIDLKTSTGKEIPIEERDASEVINRFGKYSAPKESKVYNPAFDVTPHENVTAIITEKGIVKAPFTENLKKLFQ", "soluble on expression in E. coli": "not soluble"}, {"sequence": "MIGRVFRIFREKGGILKALGLWEWYENLPHKYQKKVKHYYSLKTIKSINFPYKAKHFDTGEVENVLYTKRTFLGTIAQTALLEGDLEFAEWLYNEALKMEGSPYEAHLILNDLVLLAQKQRDLEKVKKYVLQDVELYPEYKEELKSRWGGTLPQIMAFEIYVYLLEREGKIKEALELVEWIKKEGITYPYYDQVKERLLQKLK", "soluble on expression in E. coli": "not soluble"}, {"sequence": "MSQSDLVTIKNLRFSRSQRVIFDDIDLHVPKGKVTAIMGPSGIGKTTLLRLIGGQLLPEQGEIWFDGENIPTLSRRKLYRARKKMSMLFQSGALFTDLNVFDNVAYPLREHTELDEAMIKTLVLLKLEAVGLRGAAYLMPSELSGGMARRAALARAIALDPELIMYDEPFVGQDPITMGVLVELIRNLNRALGVTSVVVSHDVPEVMSIADWVYLLADGKVIAQGSPQALRDNPDPRVQQFLCGDADGPVPFRFPAQPIEQELFSAK", "soluble on expression in E. coli": "not soluble"}, {"sequence": "ETTSCEFSVSPSGLAFCDKVVGYGPEAVKGQLIKAHYVGKLENGKVFDSSYNRGKPLTFRIGVGEVIKGWDQGILGSDGIPPMLTGGKRTLRIPPELAYGDRGAGCKGGSCLIPPASVLLFDIEYIGKA", "soluble on expression in E. coli": "soluble"}]}]}
